tested on: Bacillus subtilis; experiment: cleaved RNA product abundance (RNA/gDNA barcode ratio) relative to median wild-type variant (ratio to wild type); higher = more accumulation of the downstream cleavage product; conditions: experiment (reporter, strain, medium): exp 2b: truncated aprE reporter, strain BJT200; cleavage site: cggR-gapA (positions -7 to +36 mutated)
Protocol: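 MPRA in B. subtilis. Mutagenized RNase Y cleavage-site regions (9% mutation rate) were inserted into a barcoded reporter mRNA (truncated aprE or tetM). Cells were grown in LB at 37°C to OD600 0.3. The cleaved RNA isoform was gel-purified and its barcodes counted; the RNA:gDNA barcode ratio was normalised to the median wild-type variant, and the median over barcodes is reported per variant. The printed sequence is the variable window only; the reporter flanks are not printed.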

Sequence	cleaved RNA product abundance
ACAGACGAAGGAGCCGCTAACAAGTTATTAAAGGATGAATAATCCCTCAATATAAATATCTCTCACTTATTTAAA	0.111
ACAGACGAAGGAGCCGCAAAGAACTTATTAAGGGATGAATTATCCCTCAATATAAATATCTCTCACTTATTTAAA	0.284
ACAGACGAAGGAGCCGCAAAGAAGTTATTAAGGCATGAATTATCCCTCAATATAAATATCTCTCACTTATTTAAA	0.0689
ACAGACGAAGGAGCCGCAAAGACGTTATTAAGGGATGAATAATCCTTCAATATAAATATCTCTCACTTATTTAAA	0.427
ACAGACGAAGGAGCCGCAAAGAAGTTATTAAGGGATGTATAATCCCCCAATATAAATATCTCTCACTTATTTAAA	0.205
ACAGACGAAGGAGCCGCAATAAAGTTATTAAGGGATGAATAATCCCTCAATATAAATATCTCTCACTTATTTAAA	1.03
ACAGACGAAGGAGCCGCAAAGAAGTTATTAATGGCTGAATAATCCCTCAATATAAATATCTCTCACTTATTTAAA	0.11
ACAGACGAAGGAGCCGCAAAGAAGTTATTAAAGGGATGAATAATCCCTCAATATAAATATCTCTCACTTATTTAA	0.283
ACAGACGAAGGAGCCGCAAAGAAGTTATTAAGCGATGAATAATCCCTCAATATAAATATTTCTCACTTATTTAAA	0.0865
ACAGACGAAGGAGCCGCAAAGAAGTTATAAAGGGATGAATAATCCCTCAATAAAAATATCTCTCACTTATTTAAA	0.125
ACAGACGAAGGAGCCGCAAAGAAGTTATTGAGGGATGAATAATCCCTCAATATAAATATCTCTCACTTATTTAAA	0.116
ACAGACGAAGGAGCCGCAAAGAAGTTATAAAGGGATGAATAATCCCTCAATTTAAATATCTCTCACTTATTTAAA	0.146
ACAGACGAAGGAGCCGCAAAGAACTTATAAAGGGATGAATAATCCCTCAATATAAATATCTCTCACTTATTTAAA	0.24
ACAGACGAAGGAGCCGCAAAGAAGTTATTAAGGAATGAATAATCCCTCAATATAAATACCTCTCACTTATTTAAA	0.0997

same assay, conditions: experiment (reporter, strain, medium): exp 4a: truncated aprE reporter, strain BJT201 with 2% xylose (RNase J1 expressed); cleavage site: cggR-gapA (positions -7 to +36 mutated)

Sequence	cleaved RNA product abundance
ACAGACGAAGGAGCCGCAAAGAAGTTATAAGGGGATGAATAATCCCTCAATATAAATATCTCTCACTTATTTAAA	0.49
ACAGACGAAGGAGCCGCAAAGAAGTTATTAAGAGATGAATAATGCCTCAATATAAATATCTCTCACTTATTTAAA	0.1
ACAGACGAAGGAGCCGCAAAGTAGTTATTAAGGGATGAATAATCCCTCAATTTAAATATCTCTCACTTATTTAAA	0.221
ACAGACGAAGGAGCCGCAAAGAAGTAATTAAGGGATGAATAATCCCTCAATATAAAAATCTCTCACTTATTTAAA	0.282
ACAGACGAAGGAGCCGCAAAGTAGTTAATAATGGATGAATAATCCCTCAATATAAATATCTCTCACTTATTTAAA	0.0855
ACAGACGAAGGAGCCGCAAAGAATTTATTAAGGGATGAATAATCCCTCAATCTAAATATCTCTCACTTATTTAAA	0.102
ACAGACGAAGGAGCCGCAAAGAACTTATTAAGGGATGAATTATCCCTCAATATAAATATCTCTCACTTATTTAAA	0.31
ACAGACGAAGGAGCCGCAAAGAAGTTATTAAGGGATGTATAATCCCTTAATATAAATATCTCTCACTTATTTAAA	0.445
ACAGACGAAGGAGCCGCAAAGAAGGTATTAAGGGATGAATAATCCCTGAATATAAATATCTCTCACTTATTTAAA	1.45
ACAGACGAAGGAGCCGCAAAGAAGTTGTTAAGGGATGAATAATCCGTCAATATAAATATCTCTCACTTATTTAAA	0.418
ACAGACGAAGGAGCCGCCAATAAGTTATTAAGGGATGAATAATCCCTCAATATAAATATCTCTCACTTATTTAAA	0.812
ACAGACGAAGGAGCCGCAAAGAAGTTATTAAGCGATGAATAATCCCTCAATATAGATATCTCTCACTTATTTAAA	0.0736
ACAGACGAAGGAGCCGCAAAGAAGTTATAAAGGGATGAATAATCCCTGAATATAAATATCTCTCACTTATTTAAA	0.634
ACAGACGAAGGAGCCGCAAAGAAGTTATTAAGGCATGAATTATCCCTCAATATAAATATCTCTCACTTATTTAAA	0.132
ACAGACGAAGGAGCCGCAAAGAAGTTGTTAAGGGATGAATAATCCCTCTATATAAATATCTCTCACTTATTTAAA	0.411
ACAGACGAAGGAGCCGCATAGAAGTTATTAAGGGATGAATAATCCCTCACTATAAATATCTCTCACTTATTTAAA	0.24
ACAGACGAAGGAGCCGCATAGAAGTTATTAAGGGATGAATAATCCCACAATATAAATATCTCTCACTTATTTAAA	0.292
ACAGACGAAGGAGCCGCAATAAAGTTATTAAGGGATGAATAATCCCTCAATATAAATATCTCTCACTTATTTAAA	1.09
ACAGACGAAGGAGCCGCAAAGAAGTCATTAAGGGATGAATAAACCCTCAATATAAATATCTCTCACTTATTTAAA	0.176
ACAGACGAAGGAGCCGCAAAGAAGTTATTAAGGGATGAATAATGCATCAATATAAATATCTCTCACTTATTTAAA	0.159
ACAGACGAAGGAGCCGCAAAGAAGTTATAAAGGGATGAATAAGCCCTCAATATAAATATCTCTCACTTATTTAAA	0.172

Sequence	cleaved RNA product abundance
ACAGACGAAGGAGCCGCAAAGAAGTAATAAAGGGATGAATAATCCCTCAATATAAATATCTCTCACTTATTTAAA	0.205
ACAGACGAAGGAGCCGCAAAGAAGTTAGTAAGGTATGAATAATCCCTCAATATAAATATCTCTCACTTATTTAAA	0.135
ACAGACGAAGGAGCCGCAAAGAAGTTATTAATGGCTGAATAATCCCTCAATATAAATATCTCTCACTTATTTAAA	0.0644
ACAGACGAAGGAGCCGCAAAGAAGTTATTAAAGGGATGAATAATCCCTCAATATAAATATCTCTCACTTATTTAA	0.35
ACAGACGAAGGAGCCGCAAAGAAGTTATTAAGCGATGAATAATCCCTCAATATAAATATTTCTCACTTATTTAAA	0.171
ACAGACGAAGGAGCCGCAAAGAAGTTAGTAATGGATGAATAATCCCTCAATATAAATATCTCTCACTTATTTAAA	0.141
ACAGACGAAGGAGCCGCAAAGAAGTTATAAAGGGATGAATAATCCCTCAATAAAAATATCTCTCACTTATTTAAA	0.0461
ACAGACGAAGGAGCCGCAAAGAAGTTATTAAGGGATGAATAAACCCTCAATATAAATAACTCTCACTTATTTAAA	0.464
ACAGACGAAGGAGCCGCAAAGAAGTTATTGAGGGATGAATAATCCCTCAATATAAATATCTCTCACTTATTTAAA	0.0555
ACAGACGAAGGAGCCGCAAAGAAGTTATTAAGGGATGAACAATCCCACAATATAAATATCTCTCACTTATTTAAA	0.364
ACAGACGAAGGAGCCGCAAAGAAGTTATTAACGGATGAATAATCCCACAATATAAATATCTCTCACTTATTTAAA	0.133
ACAGACGAAGGAGCCGCAAAGAAGTTATAAAGGGATGAATAATCCCTCAATTTAAATATCTCTCACTTATTTAAA	0.152
ACAGACGAAGGAGCCGCAAAGAAATTATTAAGGGATGAATAATCCCTCCATATAAATATCTCTCACTTATTTAAA	0.338
ACAGACGAAGGAGCCGCAAAGAAGTTATTAAGGGATGAATAATCCCTCAATATATAAATCTCTCACTTATTTAAA	1.13
ACAGACGAAGGAGCCGCAAAGAACTTATAAAGGGATGAATAATCCCTCAATATAAATATCTCTCACTTATTTAAA	0.263
ACAGACGAAGGAGCCGCATAGAAGTTATTAAGAGATGAATAATCCCTCAATATAAATATCTCTCACTTATTTAAA	0.154
ACAGACGAAGGAGCCGCAAAGAAGTTGTTAAGAGATGAATAATCCCTCAATATAAATATCTCTCACTTATTTAAA	0.103
ACAGACGAAGGAGCCGCATAGAAGTTATTAAGGGATGAATAATCCCTCATTATAAATATCTCTCACTTATTTAAA	0.41
ACAGACGAAGGAGCCGCAAAGAAGTTATTAACGCATGAATAATCCCTCAATATAAATATCTCTCACTTATTTAAA	0.0743
ACAGACGAAGGAGCCGCAAAGACGTTATTAAGGGATGAATAAACCCTCAATATAAATATCTCTCACTTATTTAAA	0.312

same assay, conditions: experiment (reporter, strain, medium): exp 6: tetM reporter, strain 168; cleavage site: cggR-gapA (positions -7 to +36 mutated)

Sequence	cleaved RNA product abundance
ACAGACGAAGGAGCCGCAAAGAAGTTATTGAGGGATGAATAATCCCTCAATATAAATATCTCTCACTTATTTAAA	0.247

same assay, conditions: experiment (reporter, strain, medium): exp 8a: truncated aprE reporter, strain BJT201 with 2% xylose (RNase J1 expressed); cleavage site: glnRA (positions -5 to +31 mutated)

Sequence	cleaved RNA product abundance
CGACATGTCCCGCTTCTTTCATTATTCCGTTAGCAAGTGTTTTGCTATATACATTTACCTTTTAAGAGGAGGAAT	1.46
CGACATGTCCCGCTTCTTTCATTAATCCGTTTGCAACTGTTTTGCTATACACATTTACCTTTTAAGAGGAGGAAT	0.386
CGACATGTCCCGCTTCTTTCATTAATCCGTAACCAACTGTTTTGCTATATACATTTACCTTTTAAGAGGAGGAAT	0.187
CGACATGTCCCGCTTCTTTCATTACTCCGTTTGCAACTGTTTTGCTATATACATTTACCTTTTAAGAGGAGGAAT	0.667
CGACATGTCCCGCTTCTTTCATTAATCCATTAGCAACTGTTTCGCTATATACATTTACCTTTTAAGAGGAGGAAT	0.271
CGACATGTCCCGCTTCTTTCATTAATCCATTAGCAACTGTTTTGCTATATACATTTATCTTTTAAGAGGAGGAAT	0.777
CGACATGTCCCGCTTCTTTCATTAAACCGTTAGCAACAGTTTTGCTATATACATTTACCTTTTAAGAGGAGGAAT	1.01
CGACATGTCCCGCTTCTTTCATTAATCTGTTAGCAACTGTTTTTCTATATACATTTACCTTTTAAGAGGAGGAAT	0.483
CGACATGTCCCGCTTCTTTCATTAATCTGTTAGCAACTGTTTTACTATATACATTTACCTTTTAAGAGGAGGAAT	0.541
CGACATGTCCCGCTTCTTTCATTAATCCGTTAGAACCTGTTTTGCTATATACATTTACCTTTTAAGAGGAGGAAT	0.229
CGACATGTCCCGCTTCTTTCATTAATACGTTAGCATCTGTTTTGCTATATACATTTACCTTTTAAGAGGAGGAAT	0.87
CGACATGTCCCGCTTCTTTCATTAATCGGTTAGCAACTGTTTTGCAATATACATTTACCTTTTAAGAGGAGGAAT	0.349
CGACATGTCCCGCTTCTTTCATTAATCCGTTAGCATCTCTTTTGCTATATACATTTACCTTTTAAGAGGAGGAAT	0.59
CGACATGTCCCGCTTCTTTCATTAATCCGTTAGCAACTATTTTGATATATACATTTACCTTTTAAGAGGAGGAAT	0.503
